System: CC[C@]1(O)C[C@@H]2CN(CCc3c([nH]c4ccccc34)[C@@](C(=O)OC)(c3cc4c(cc3OC)N(C)[C@H]3[C@@](O)(C(=O)OC)[C@H](OC(C)=O)[C@]5(CC)C=CCN6CC[C@]43[C@@H]65)C2)C1
Assay: TP_TRANSPORTER: transepithelial transport (basal to apical) in Caco-2 cells
Assay type: functional, cell-based

ATP-dependent translocase ABCB1 (Homo sapiens)
Km: 19 µM

Reference: ChEMBL document CHEMBL2074196, “Drug absorption limited by P-glycoprotein-mediated secretory drug transport in human intestinal epithelial Caco-2 cell layers” (Pharm Res, 1993)
